Laboratory results reported in patent US20260265391A1 (BIOTHEUS, published 2026).

Legend:
[1] = molecular target: T1, human CD40 overexpressed on cells (human, UniProt P25942 21-277); test: cell-based or functional assay
[2] = molecular target: T1, human CD40 overexpressed on cells; test: cell-based or functional assay; remark: listed apart in the source
[3] = molecular target: T1, human CD40 overexpressed on cells; test: cell-based or functional assay; remark: listed apart in the source
[4] = molecular target: T1, human CD40 overexpressed on cells; test: flow cytometry on CHO-S cells overexpressing human CD40
Experimental: (§1) Specifically, by transfecting the pCHO1.0 vector (Invitrogen) with the human/cynomolgus CD40 cDNA cloned into the MCS and followed by applying pressure selection, CHO-S cells overexpressing human/cynomolgus CD40 were generated. The expanded CD40 overexpressing cells were adjusted to the appropriate cell density and plated on 96-well flow plate. After centrifugation, the cells were incubated with a gradient-diluted sample at 4° C. for 30 minutes. and the cells were then washed twice with PBS, and followed by incubation with a fluorescent secondary antibody diluted to the appropriate concentration, at 4° C. for 30 min. Following two washes with PBS, cells were resuspended in PBS and fluorescent signals were detection on the CytoFlex flow cytometer to calculate the corresponding MFI.

[5] = molecular target: T2, cynomolgus CD40 overexpressed on CHO-S cells (cynomolgus, UniProt G7PG38 21-278); test: flow cytometry on CHO-S cells overexpressing cynomolgus CD40
T2 construct: whole, on cells; also called cynomolgus CD40 expressing CHO cells
Experimental: as §1

human CD40-Fc protein = molecular target: T3, human CD40-Fc protein (human, UniProt P25942 21-193); test: BLI (ForteBio), IgG on AHQ sensor, 100 nM CD40-Fc in solution, bivalent, 1:1 model
T3 construct: also called human CD40-Fc fusion protein; CD40-Fc antigen; not shown: Fc part
Experimental: (§2) The antibody-loaded sensor was further incubated in a high concentration of irrelevant intact antibody solution for 10 minutes to saturate and block the Fc binding sites on the AHQ sensor. The blocked sensor was then incubated with 100 nM CD40-Fc antigen until a plateau was reached, and then the sensor was transferred to the analysis buffer for at least 2 minutes for dissociation rate measurement. Kinetic analysis was performed using a 1:1 binding model.

[6] = molecular target: T4, cynomolgus CD40-Fc protein (cynomolgus, UniProt G7PG38 21-193); test: as above
T4 construct: not shown: Fc part
Experimental: as §2

T1 sequence (P25942 21-277 limits assumed): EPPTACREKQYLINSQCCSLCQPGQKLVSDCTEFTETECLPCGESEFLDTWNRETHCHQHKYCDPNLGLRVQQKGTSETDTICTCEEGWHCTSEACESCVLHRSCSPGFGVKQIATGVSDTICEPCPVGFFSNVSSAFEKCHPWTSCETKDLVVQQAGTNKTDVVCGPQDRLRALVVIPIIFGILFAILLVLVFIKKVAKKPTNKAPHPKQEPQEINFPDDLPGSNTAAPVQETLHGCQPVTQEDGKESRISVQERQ
T3 sequence (P25942 21-193 limits assumed): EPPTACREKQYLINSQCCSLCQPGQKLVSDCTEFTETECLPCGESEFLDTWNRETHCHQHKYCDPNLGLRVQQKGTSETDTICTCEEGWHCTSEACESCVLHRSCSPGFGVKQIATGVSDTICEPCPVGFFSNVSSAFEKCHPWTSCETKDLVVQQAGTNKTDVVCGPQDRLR

B1: ADI-47720 (antibody, human IgG1, kappa, V domains shown)
VH: EVQLVESGGGLVQPGRSLRLSCAASGFTFDDYAMHWVRQAPGKGLEWVSGISWSSGSIGYADSVKGRFTISRDNAKNSLYLQMNSLRAEDTAVYYCAKDPTATTGARGYFDLWGRGTLVTVSS
VL: DIQMTQSPSSVSASVGDRVTITCRASQGISSWLAWYQQKPGKAPKLLIYAASSLQSGVPSRFSGSGSGTDFTLTISSLQPEDFATYYCQQRASFPPTFGGGTKVEIKR
- Signal amplification with bead crosslinking (NFkB-Luc2P reporter, U2OS cells overexpressing human CD40) [1]: 11.5
- Signal amplification without bead crosslinking (NFkB-Luc2P reporter, U2OS cells overexpressing human CD40) [1]: 1.3
- EC50 of the CD40-NFkB reporter gene assay (without beads cross-linking) [2]: ~1070 nM
- EC50 of the CD40-NFkB reporter gene assay (with beads cross-linking) [3]: 304 nM
- EC50 [4]: 4.82 nM
- EC50 [5]: 5.54 nM
- Kd (human CD40-Fc protein): 9.32 nM
- Kd [6]: 6.07 nM
